The values that follow come from paper PMC11827635 (Science Advances, 2025).

B2: αE-catenin α(CA), as it stands in the tetramer and pentamer (natural protein, mouse, UniProt P26231 1-906, looked up)
chain: MTAVHAGNINFKWDPKSLEIRTLAVERLLEPLVTQVTTLVNTNSKGPSNKKRGRSKKAHVLAASVEQATENFLEKGDKIAKESQFLKEELVVAVEDVRKQGDLMKSAAGEFADDPCSSVKRGNMVRAARALLSAVTRLLILADMADVYKLLVQLKVVEDGILKLRNAGNEQDLGIQYKALKPEVDKLNIMAAKRQQELKDVGNRDQMAAARGILQKNVPILYTASQACLQHPDVAAYKANRDLIYKQLQQAVTGISNAAQATASDDAAQHQGGSGGELAYALNNFDKQIIVDPLSFSEERFRPSLEERLESIISGAALGADSSCTEDDRRERIVAECNAVRQALQDLLSEYMGNAGRKERSDALNSAIDKMTKKTRDLRRQLRKAVMDHVSDSFLETNVPLLVLIEAAKNGNEKEVKEYAQVFREHANKLIEVANLACSISNNEEGVKLVRMSASQLEALCPQVINAALALAAKPQSKLAQENMDLFKEQWEKQVRVLTDAVDDITSIDDFLAVSENHILEDVNKCVIALQEKDVDGLDRTAGAIRGRAAEVIHVVTSEMDNYEPGVYTEKVLEATKLLSNTVMPRFTEQVEAAVEALSSDPAQPMDENEFIDASRLVYDGIRDIRKAVLMIRTPEELDDSDFETEDFDVRSRTSVQTEDDQLIAGQSARAIMAQLPQEQKAKIAEQVASFQEEKSKLDAEVSKWDDSGNDIIVLAKQMCMIMMEMTDFTRGKGPLKNTSDVISAAKKIAEAGSRMDKLGRTIADHCPDSACKQDLLAYLQRIALYCHQLNICSKVKAEVQNLGGELVVSGVDSAMSLIQAAKNLMNAVVQTVKASYVASTKYQKSQGMASLNLPAVSWKMKAPEKKPLVKREKQDETQTKIKRASQKKHVNPVQALSEFKAMDSI
notes: αE-catenin, α(CA); residues 690 to 903 are modelled in PDB 9DVA; single chain of m5, m6, m11 and m18, written for the pairs that touch; also called αE-catenin ABD (in the structure); ABD1; source: FreeStyle 293-F, co-expressed and purified within the cadherin-catenin–vinculin complex

In data set [1] the target is B2. Briefly: cryo-EM structure; 2.5 μM tetramer premixed with 5 μM afadin-CC, added to 0.6 μM F-actin on the grid; straight filaments 3.1 Å, curved filaments decorated along one strand 4.1 Å. To be noted: both partners purified.
Data set [2] deals with the molecule itself. The data set is described as above.

B1: afadin coiled-coil region (afadin-CC) (domain or fragment, mouse, UniProt Q9QZQ1-3 1393-1602, looked up)
chain: ANQAGPQSAQVAAAEWKKREEHQRWYEKEKARLEEERERKRREQERKLGQMRSQTLNPASFSPLATQAKPEKPSTLQRPQETVIRELQPQQQPRTIERKDLQYITISKEELSSGDSLSPDPWKRDAREKLEKQQQMHIVDMLSKEIHELQNKVDRTAEESDRLRKLMLEWQFQKRLQESKQKDEDDDEEEDDDVDTMLIMQRLEAERRAR
notes: afadin, coiled-coil region (afadin-CC); residues 1508 to 1578 are modelled in PDB 9DVA; also called afadin-CC domain; source: FreeStyle 293-F, purified (anti-GFP beads, TEV, MonoQ, Superdex 200); not shown: GFP, N-terminal, cleaved
Regarding B1, in data set [1], the binding result is recorded as “binds”.

Turning to B2, the binding result in data set [2] is “binds”.
